Results taken from US11285285B2, “Systems and methods comprising a droplet delivery device and a breathing assist device for therapeutic treatment” (PNEUMA RESPIRATORY, INC., priority 2016, dated 2022).
Each block holds one substance with its values, some of them ahead of it.

Key:
Assay type in all cases: physicochemical
[1] = Anderson Cascade Impactor testing of Albuterol sulfate aerosol from the droplet delivery device (Example B); settings: Albuterol 0.5%, 28.3 lpm, 10 actuations
[2] = Insulin stability after aerosol generation, size exclusion chromatography (SEC)
From the text: Size Exclusion Chromatography (SEC): Alternately, to determine the stability of active agent after droplet generation, the generated stream of droplets including the active agent may be collected and SEC-HPLIC may be employed to monitor for any changes in large molecule aggregation and protein fragment content. Soluble protein aggregates and protein fragment content may be calculated by comparing respective peak area under the SEC-HPLC curve of dispensed protein solutions with controls (solutions remaining in the device reservoir).
Drug solutions for testing include Enbrel, (ENBREL® single-use prefilled syringes in 25 mg (0.51 mL of a 50 mg/mL solution of etanercept), and insulin, (Humalog, 200 units/ml, 3 ml kwikpens)
To calculate and compare effects of droplet generation through an ejector mechanism of the disclosure, the total area under the curve of the UV signal at 280 nm versus elution time for controls is compared with the aerosolized samples, which is set to 100%.
Aerosol collection and SEC is performed in a similar fashion as for the Enbrel analysis and aerosol collection.
Fifty microliters of the collected aerosol spray is injected onto the SEC column for analysis, while 50 mcl of the Kwikpen insulin solution is injected onto the SEC column for control samples.

[3] = Gel electrophoresis of active agent after droplet generation
From the text: Gel Electrophoresis: To determine the stability of active agent after droplet generation, the generated stream of droplets including the active agent is collected and the molecular weight of the active agent is verified using gel electrophoresis.

[4] = Enbrel stability after aerosol generation, size exclusion chromatography (SEC)
From the text: Size Exclusion Chromatography (SEC): Alternately, to determine the stability of active agent after droplet generation, the generated stream of droplets including the active agent may be collected and […] may be employed to monitor for any changes in large molecule aggregation and protein fragment content. Soluble protein aggregates and protein fragment content may be calculated by comparing respective peak area under the SEC-HPLC curve of dispensed protein solutions with controls (solutions remaining in the device reservoir). Drug solutions for testing include Enbrel, (ENBREL® single-use prefilled syringes in 25 mg (0.51 mL of a 50 mg/mL solution of etanercept), and insulin, (Humalog, 200 units/ml, 3 ml […] is performed with a YarraTM 3 um SEC-2000 LC column 300×7.8 mm, SecurityGuard cartridge kit and SecurityGuard cartridges GFC-2000, 4×3 mm ID. Fifty microliters of Enbrel from the syringe (ENBREL® single-use prefilled syringes in 25 mg/0.51 mL of a 50 mg/mL solution of etanercept) is diluted (4:1) (4 parts, 200 mcl of the mobile phase buffer solution to 1 part, 50 mcl Enbrel from syringe). Fifty microliter of the diluted Enbrel is injected and separation was performed at a flow rate of 1.0 ml/min. The mobile phase buffer system included a PHOS. BUFF. SALINE. […] UV detection is performed at 280 nm. […] An ampule/cartridge is filled with either 0.20 ml of Enbrel® (50 mg/ml) diluted 4:1 (10 mg/ml)(4 parts (200 mcl) of PBS and 0.025% NaN3 and 1 part (50 mcl of Enbrel solution from the syringe). After 20 actuations and aerosolization, about 150 mcl of the aerosolized Enbrel solution is recovered and collected in the polypropylene tube located below the ejector mechanism. The control consists of the diluted Enbrel solution, 50 mcl of which is injected into the SEC column for analysis.

[5] = average of Aerosolized S1 and S2
[6] = control (diluted Enbrel 10 mg/ml, not aerosolized), SEC UV 280 nm

- Fine Particles (<0.4 um) ([1]; Anderson Cascade): 31.0 µg
- Fine Particule Fraction (<0.4 um) ([1]; Anderson Cascade): 3.5%
- droplets of an average diameter of less than about 4 μm ([1]; Anderson Cascade): over 70%
- Cum. % < ([1]; FILTER): 0.00%
- Cum. % > ([1]; FILTER): 100.00%
Substance: Albuterol sulfate

Substance: Insulin: insulin, Humalog, 200 units/ml, 3 ml kwikpens
- ejected dose that is structurally unchanged ([2]; aerosolized with test device): 97.5%
- Peak 3 area, Avg. [2, 5]: 2.4905
- Peak Area %, Peak 3 ([2]; control (Kwikpen insulin solution 200 U/ml, not aerosolized), SEC): 0%
- ejected dose that forms a fragment ([2]; fragment which elutes at ~25 minutes): 2.5%

Substance: adalimumab
- change in the electrophoretic mobility (molecular weight) of post-aerosol active agent versus control [3]: negligible change in the electrophoretic mobility

Substance: bevacizumab
- change in the electrophoretic mobility (molecular weight) of post-aerosol active agent versus control [3]: negligible change in the electrophoretic mobility

Substance: etanercept [Enbrel]
- Peak 4 area, Avg. [4, 5]: 0.3545
- Peak 5 area, Avg. [4, 5]: 4.2755
- Peak Area %, Peak 4 [4, 6]: 0%
- Peak Area %, Peak 5 [4, 6]: 0%
- dose that leads to formation of molecular fragments ([4]; fragments with elution times of 13 and 25 minutes): 4.6%
- change in the electrophoretic mobility (molecular weight) of post-aerosol active agent versus control [3]: negligible change in the electrophoretic mobility
